Reference: patent publication US20260185118A1 (priority 2023, published 2026)
Changes are numbered by the printed parent chain. Where two headings read alike, the source gives them in different places.

Assays:
bacterial and fungal = conditions: it has been shown; cited from earlier work
[1] = system: Huanglongbing pathogen CLas; design: species or system Candidatus Liberibacter asiaticus; conditions: in vivo
[2] = system: Huanglongbing pathogen CLas; type: in vivo, Candidatus Liberibacter asiaticus; conditions: 7 days after feeding of CLas-carrying psyllids, qPCR
[3] = system: Huanglongbing pathogen CLas; type: in vivo, Candidatus Liberibacter asiaticus; conditions: for disease phenotype: 3 months after grafting infected branches onto transgenic citrus; for pathogen titer versus vector control: qPCR, newborn leaves
CsMYC2 [4] = type: binding, Citrus sinensis; conditions: yeast AH109, SD-Leu-Trp-His with 5 mM 3-AT
CsMYC2 [5] = type: biochemical, Citrus sinensis; conditions: with AtUBA1, AtUBC8 and ubiquitin, anti-MBP immunoblot
[6] = system: terpene synthase CsTPS21 gene cluster; type: in vivo, Valencia orange; conditions: transgenic citrus leaves overexpressing, compared with blank vector control
CsPUB21 = type: biochemical, Citrus sinensis; conditions: in the presence of E1 (AtUBA1) and E2 (AtUBC8), anti-c-myc immunoblot
CsMYC2 protein = type: cell-based, Citrus sinensis; conditions: tobacco leaves, 35S:CsMYC2-myc co-injected, versus 35S:YFP
CsMYC2 [7] = type: cell-based, Citrus sinensis; conditions: tobacco leaves, 2-3 days, cytoplasm and nucleus
[8] = type: biochemical, Citrus sinensis L.Osbeck; conditions: 2 μg protein, 10 μg FPP, 30° C., 30 min

## C=C1CC/C=C(\C)CC[C@@H]2[C@@H]1CC2(C)C [β-caryophyllene]
Bacterial and fungal
  bacterial and fungal killing effect: rapid bacterial and fungal killing effect

B1: CsPUB21-Myc (protein)
chain: MILSWKRLRGGRGRRAGKKQPGVESGGEMELTTPNHFRCPISLDLMKDPVTLSTGITYDRENIEKWIHEDGNITCPVTNRVLTSFEPIPNHTIRRMIQDWCVENRSYGIERIPTPRIPVSSVEVFEINCNITTACKSEDQAGCRDLVAKIKKWTKESDRNKRCIVDNGAVSVLAEAFETFSKTCLDENVSVLEEILSTLTLLFPLAGEGLTYLGSASSMRCMVWFLKSGDLSRRRNAVLVLREIVSSDHRKVNVLLDIEGAIEPLFKLIKEPICPTATKASLVVVYRTITSASATEKPIQKFVDMGLVSLLLEMLVDAQRSLCEKALSVLDGLCSSDYGRGDAYNNSLIFPVIVKKILRVSDLATEFAVSILWKLCKNEEREEKTAFAEALQVGAFQKLLLLLQVGCADKTKEHVSELLKLLNPHRARLECIDSMDFKDLKRPF
MBP-CsMYC2-HA
  polyubiquitination of MBP-CsMYC2 (immunoblot with anti-MBP tag antibody; E. coli system with AtUBA1, AtUBC8 and FLAG-UBQ): CsPUB21 is able to effectively polyubiquitinate the CsMYC2 protein in vitro

B2: CsPUB21DN (protein)
chain: B1 chain with C39A
modifications: left off: large carriers
[1]
  concentration of CLas in the susceptible leaves: significantly reduced
[2]
  CLas detection versus vector control plants: significantly lower than that of the vector control plants
  Ct values versus healthy plants: no difference in the Ct values
[3]
  disease phenotype: still show a healthy state
[3]; 3 months of infestation
  pathogen titer versus vector control: lower pathogen titer than the vector control plants

B3: YFP-CsPUB21 (protein)
chain: B1 chain
CsMYC2-myc
  accumulated level of the CsMYC2 protein on co-expression in tobacco leaves (immunoblot, anti-c-myc): the accumulated level of the CsMYC2 protein and coexpression of CsPUB21 were significantly reduced

B4: CsPUB21: citrus plant U-box E3 ubiquitin ligase protein, amino acid sequence SEQ ID No. 1; overexpressed in citrus (protein)
chain: B1 chain
CsMYC2 [4]
  interaction with CsMYC2 (yeast two-hybrid): interaction between CsPUB21 and CsMYC2 was confirmed
CsMYC2 [5]
  polyubiquitination of the CsMYC2 protein in vitro: able to effectively polyubiquitinate
[6]
  expression of four CsTPS21 genes (CsTPS21-2, CsTPS21-7, CsTPS21-9, CsTPS21-10): significantly reduces
CsPUB21
  E3 ubiquitin ligase activity (auto-ubiquitination): has the E3 ubiquitin ligase activity
[3]; 2 and 3 months of pathogen infestation
  pathogen titer versus vector control: significantly higher than that of the vector control
[3]
  disease phenotype: show disease characteristics of Huanglongbing infection
CsMYC2 protein
  accumulated level of the CsMYC2 protein on coexpression: significantly reduced
CsMYC2 [7]
  interaction with CsMYC2 (BiFC): confirmed

B5: CsPUB21DN-Myc (protein)
chain: B1 chain with C39A
MBP-CsMYC2-HA
  polyubiquitination of MBP-CsMYC2 (immunoblot with anti-MBP tag antibody; E. coli system with AtUBA1, AtUBC8 and FLAG-UBQ): CsPUB21DN cannot ubiquitinate CsMYC2

B6: YFP-CsPUB21DN (protein)
chain: B1 chain with C39A
CsMYC2-myc
  accumulated level of the CsMYC2 protein on co-expression in tobacco leaves (immunoblot, anti-c-myc): this reduction was inhibited by coexpression of CsPUB21DN

B7: CsTPS21-7: citrus terpene synthase protein, SEQ ID No. 7, purified as GST fusion protein (protein)
chain: MKDMSIPLLAAVSSSTEETVRPIADFHPTLWGNHFLKSAADVETIDAATQEQHAALKQEVRRMITTTANKLAQKLHMIDAVQRLGVAYHFEKEIEDELGKVSHDLDSDDLYVVSLRFRLFRQQGVKISCDVFDKFKDDEGKFKESLINDIRGMLSLYEAAYLAIRGEDILDEAIVFTTTHLKSVISISDHSHVNSNLAEQIRHSLQIPLRKAAARLEARYFLDIYSRDDLHDETLLKFAKLDFNILQAAHQKEASIMTRTKDISEVDTILGVKVKKHSGERANISIIFDFFRWDIGLIDTLPEYMKFIVKALLDIYREAEEELAKEGRSYGIPYAKQMMQELIILYFTEAKWLYKGYVPTFDEYKSVALRSIGLRTLAVASFVDLGDFIATKDNFECILKNAKSLKATETIGRLMDDIAGYKFEQKRGHNPSAVECYKNQHGVSEEEAVKELLLEVANSWKDINEELLNPTTVPLPMLQRLLYFARSGHFIYDDGHDRYTHSLMMKRQVALLLTEPLAI
modifications: GST fusion tag
[8]
  7-epi-sesquiterpene share of the total compounds: 4.79±0.11%
  (E)-β-farnesene share of the total compounds: 5.54±0.32%
  sesquiterpene share of the total compounds: 7.86±0.70%
  β-caryophyllene share of the total product: 81.81±0.92%
